Assay [1] addresses T1, human pIgR, full-length, on cells (human, UniProt P01833 19-764).
T1 construct: whole, on cells; Used for the flow cytometry EC50 values (MDCK-hpIgR) and for the transcytosis read-outs; also called hpIgR; cell-surface hpIgR
In words: flow cytometry on MDCK-hpIgR cells; summary table, repeats Table 1. On the technique in general: A flow cytometer gives signals particle by particle.

In assay [2] the target is T2, human pIgR extracellular domain (ECD) (human, UniProt P01833 19-638).
T2 construct: also called hpIgR ECD
The assay is described as follows: ECL (MSD), hpIgR-ECD coated, anti-Fc detection.

Another assay deals with T3, hpIgR_D3.
T3 construct: HIS-tagged construct from HEK293 cells; also called human pIgR extracellular domain 3 (D3); hD3
T3 HIS-tagged domain construct: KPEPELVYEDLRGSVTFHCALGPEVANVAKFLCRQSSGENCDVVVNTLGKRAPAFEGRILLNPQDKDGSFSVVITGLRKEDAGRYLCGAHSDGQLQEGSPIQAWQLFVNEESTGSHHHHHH
In words: ECL (MSD) heat map, HIS-tagged construct captured via anti-HIS, anti-human-Fc detection.

Assay [3] concerns the target T4, human pIgR extracellular domain 2 (D2) (human, UniProt P01833 128-242).
T4 construct: HIS-tagged construct made in HEK293 cells; also called hpIgR domain 2
The description is as above.

Assay [4] addresses T1, human pIgR, full-length, on cells. In words: cell-based or functional assay.
Assay [5] concerns the target T2, human pIgR extracellular domain (ECD). In words: ECL (MSD), anti-VHH detection against anti-Fc detection.
Target sequence in this assay (P01833 other isoform, or with tags, fused parts or gaps): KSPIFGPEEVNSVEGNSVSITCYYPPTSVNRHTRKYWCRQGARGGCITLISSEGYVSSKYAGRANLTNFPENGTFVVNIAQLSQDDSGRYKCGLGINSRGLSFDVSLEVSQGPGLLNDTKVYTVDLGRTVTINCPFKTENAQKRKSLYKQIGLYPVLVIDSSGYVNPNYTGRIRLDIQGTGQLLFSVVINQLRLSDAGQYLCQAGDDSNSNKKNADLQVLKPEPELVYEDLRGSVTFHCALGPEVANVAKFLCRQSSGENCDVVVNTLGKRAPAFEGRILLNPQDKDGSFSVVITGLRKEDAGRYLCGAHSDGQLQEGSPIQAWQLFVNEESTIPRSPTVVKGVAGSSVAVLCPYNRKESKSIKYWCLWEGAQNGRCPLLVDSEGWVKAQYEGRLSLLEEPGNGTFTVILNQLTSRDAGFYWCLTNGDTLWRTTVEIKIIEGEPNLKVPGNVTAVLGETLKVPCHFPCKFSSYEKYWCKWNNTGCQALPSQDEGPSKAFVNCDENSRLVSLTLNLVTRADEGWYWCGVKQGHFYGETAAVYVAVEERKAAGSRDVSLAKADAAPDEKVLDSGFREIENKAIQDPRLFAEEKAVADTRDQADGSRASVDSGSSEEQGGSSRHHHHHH
Assay [6] shares this target. In words: BLI (Octet RED384), 1:1 fit, 25 C, PBS; column kdis. For orientation: In BLI a coated tip is dipped into the sample, and binding shifts an interference pattern.
Target sequence in this assay (P01833 other isoform, or with tags, fused parts or gaps): as above
In assay [7] the target is T5, human pIgR extracellular domain 4-domain 5 (D4-D5) (human, UniProt P01833 350-565).
T5 construct: HIS-tagged construct made in HEK293 cells; also called hpIgR domains 4-5
T5 chain: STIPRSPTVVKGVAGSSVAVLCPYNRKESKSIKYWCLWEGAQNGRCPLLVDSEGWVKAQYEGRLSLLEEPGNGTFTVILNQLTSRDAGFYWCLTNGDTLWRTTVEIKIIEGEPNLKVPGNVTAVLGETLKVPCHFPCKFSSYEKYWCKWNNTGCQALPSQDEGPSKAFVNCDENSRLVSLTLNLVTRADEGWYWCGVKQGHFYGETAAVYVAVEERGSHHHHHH
The assay is described as above.

Assay [8] concerns the target T2, human pIgR extracellular domain (ECD). In words: BLI; summary table, repeats Table 1.
Target sequence in this assay (P01833 other isoform, or with tags, fused parts or gaps): as the sequence (P01833 other isoform, or with tags, fused parts or gaps) above
The target of assay [9] is T1, human pIgR, full-length, on cells. In words: flow cytometry on MDCK-hpIgR cells.
Assay [10] addresses T2, human pIgR extracellular domain (ECD). In words: ECL (MSD), hpIgR-ECD coated, anti-VHH detection.
Target sequence in this assay (P01833 other isoform, or with tags, fused parts or gaps): as the sequence (P01833 other isoform, or with tags, fused parts or gaps) above
Procedure: To check whether VHH recognizes a buried epitope on pIgR, EC₅₀ values were measured for VHH-mono-Fc molecules binding to hpIgR-ECD protein by electrochemiluminescence using two different detection antibodies, an anti-Fc antibody and an anti-VHH antibody. pIgR ECD (10 μg/ml in PBS) was coated on high-bind MSD plates for 2 hours at RT with 1000 rpm, incubated with blocking buffer for 1 hour at RT, incubated with VHH-mono-Fc molecules (increasing concentrations in PBS) for 2 hours at RT with 1000 rpm, washed 3× with PBT, incubated with ruthenylated secondary antibody (2 μg/ml in PBS) for 1 hour at RT with 1000 rpm, washed 3× with PBT and read plates in 40 ul reading buffer using the MSD imager. EC50 was calculated by fitting log VHH concentration versus log ECLU in Prism (Graphpad). The increase in EC₅₀ (>50-fold) due to anti-VHH detection was used as a measure to determine whether VHH recognized buried epitope on pIgR.
The target is the same in assay [11]. In words: BLI (Octet RED384), 1:1 fit, 25 C, PBS.
Target sequence in this assay (P01833 other isoform, or with tags, fused parts or gaps): as the sequence (P01833 other isoform, or with tags, fused parts or gaps) above
The target in assay [12] is T5, human pIgR extracellular domain …. In words: BLI (Octet RED384), 1:1 fit, 25 C, PBS.
Assay [13] addresses T1, human pIgR, full-length, on cells. The assay is described as follows: cell-based or functional assay. This is another data set of the same source.
Assay [14] shares this target. The assay is described as follows: cell-based or functional assay. The source holds these as a separate data set.
The target of assay [15] is T2, human pIgR extracellular domain (ECD). In words: BLI; summary table, repeats Table 1. The source holds these as a separate data set.
Target sequence in this assay (P01833 other isoform, or with tags, fused parts or gaps): as the sequence (P01833 other isoform, or with tags, fused parts or gaps) above
Assay [16] shares this target. In words: BLI (Octet), VHH-mono-Fc and hpIgR ectodomain.
Assay [17] has as its target T1, human pIgR, full-length, on cells. The assay is described as follows: flow cytometry on MDCK-hpIgR cells; summary table, repeats Table 1. The source holds these as a separate data set.
Procedure: Flow Cytometry was performed as follows. To test whether VHH-mono-Fc molecules recognize cell-surface hpIgR, Madin-Darby canine kidney (MDCK) cells engineered to express full-length hpIgR were used. Cells were cultured in Dulbecco's modified Eagle's medium containing 10% fetal calf serum at 37° C. with 5% CO₂. Cells were split into equal fractions (≈70,000 cells) and incubated with increasing concentrations of VHH-mono-Fc molecules for 30 min at 4 C. […] Cells were washed twice with cold staining buffer, resuspended in running buffer and analyzed with an iQue Screener (IntelliCyt Corporation). Binding was assessed by RL1 (A647) Geomeans from the live cell population and EC50 was calculated by fitting log VHH concentration versus MFI in Prism (Graphpad).
In assay [18] the target is T6, human pIgR extracellular domain 1-domain 2 (D1-D2) (human, UniProt P01833 19-240).
T6 construct: HIS-tagged construct made in HEK293 cells
In words: ECL (MSD) heat map, HIS-tagged construct captured via anti-HIS, anti-human-Fc detection.

Assay [19] deals with T7, human pIgR extracellular domain 1 (D1) (human, UniProt P01833 19-127).
T7 construct: HIS-tagged construct made in HEK293 cells; also called hpIgR domain-1
Described as above.

The next assay addresses T8, hpIgR_D2-D3.
T8 construct: HIS-tagged construct from HEK293 cells; also called human pIgR extracellular domain 2-domain 3 (D2-D3); hD2-D3
T8 HIS-tagged domain construct: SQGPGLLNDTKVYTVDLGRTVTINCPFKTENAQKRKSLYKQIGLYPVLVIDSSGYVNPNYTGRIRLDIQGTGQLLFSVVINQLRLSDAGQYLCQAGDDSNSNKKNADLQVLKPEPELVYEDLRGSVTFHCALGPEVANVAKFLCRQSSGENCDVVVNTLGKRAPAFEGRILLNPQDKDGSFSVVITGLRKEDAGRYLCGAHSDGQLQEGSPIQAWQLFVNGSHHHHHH
Described as above.

The target of assay [20] is T7, human pIgR extracellular domain 1 (D1). The description is as above. The source holds these as a separate data set.
In assay [21] the target is T9, human pIgR extracellular domain 5 (D5) (human, UniProt P01833 460-565).
T9 construct: HIS-tagged construct made in HEK293 cells; also called hpIgR domain 5
The description is as above.

Assay [22] deals with T5, human pIgR extracellular domain …. Described as above.
The target of assay [23] is T4, human pIgR extracellular domain 2 (D2). The assay is described as above. The source holds these as a separate data set.

Like-named read-outs stand apart in the source and are kept apart here. Bounds are passed on as bounds.

A word on the EC50: it is the concentration needed to bring the measured effect to its halfway point. What is called koff is the first-order rate constant of dissociation. The term Kd denotes a measure of binding affinity in units of concentration. Low readings indicate a tighter complex, high ones a looser complex. As a reminder, the kon is the second-order rate constant of association.

T1 sequence (P01833 19-764): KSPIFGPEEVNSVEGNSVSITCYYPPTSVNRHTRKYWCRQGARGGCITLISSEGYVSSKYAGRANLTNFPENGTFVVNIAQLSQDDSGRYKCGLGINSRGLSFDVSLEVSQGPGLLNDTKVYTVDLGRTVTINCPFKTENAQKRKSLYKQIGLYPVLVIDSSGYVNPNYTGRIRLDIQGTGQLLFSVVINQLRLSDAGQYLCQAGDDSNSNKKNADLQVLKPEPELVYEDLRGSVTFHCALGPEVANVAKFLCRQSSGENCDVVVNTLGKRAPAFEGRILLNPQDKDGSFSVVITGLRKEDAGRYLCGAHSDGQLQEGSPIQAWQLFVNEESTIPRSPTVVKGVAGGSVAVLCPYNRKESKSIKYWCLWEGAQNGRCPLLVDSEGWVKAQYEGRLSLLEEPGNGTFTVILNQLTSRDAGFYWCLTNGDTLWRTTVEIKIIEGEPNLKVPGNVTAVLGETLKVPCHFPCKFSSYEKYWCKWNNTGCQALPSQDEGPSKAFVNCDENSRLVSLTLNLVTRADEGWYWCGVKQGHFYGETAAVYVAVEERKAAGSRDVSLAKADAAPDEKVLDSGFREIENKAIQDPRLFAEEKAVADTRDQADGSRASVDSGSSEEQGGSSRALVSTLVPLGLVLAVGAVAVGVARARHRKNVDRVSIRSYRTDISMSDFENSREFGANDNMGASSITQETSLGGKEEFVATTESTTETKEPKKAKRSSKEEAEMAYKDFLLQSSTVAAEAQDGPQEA

B1: VHH12-linker-mono-Fc protein (Fc fusion)
chain: QVQLVETGGGLVQAGDSLRLSCAASGRTLSFNTYAMGWFRQAPGKEREFVASITWNGGSTSYADSVKGRFTITRDNAKNTATLRMNSLQPDDTAVYYCAAARYYVSGTYFPANYWGQGTQVTVSSEPKTPKPQPQPQLQPQPNPTTESKSPKSPAPELLGGPSVFLFPPKPKDTLMISRTPEVTCVVVDVSHEDPEVKFNWYVDGVEVHNAKTKPREEQYNSTYRVVSVLTVLHQDWLNGKEYKCKVSNKALPAPIEKTISKAKGQPREPQVYTKPPSREEMTKNQVSLSCLVKGFYPSDIAVEWESNGQPENNYKTTVPVLDSDGSFRLASYLTVDKSRWQQGNVFSCSVMHEALHNHYTQKSLSLSPGK
notes: made in CHO cells; also called VHH12-mono-Fc; hpIgR_266
Consider B1, for which the EC50 is 4.6 nM in [1]; 0.5 nM in assay [2]; 4.6 nM in assay [9]; 0.2 nM in [10]; 4.6 nM in assay [17]. The binding result (with hpIgR_D3; in assay [3]; in assay [18]; in assay [19]; with hpIgR_D2-D3) was “no binding (tested: 100 ug/ml (single concentration))” throughout. Also, the “Transcytosis (Fold Incr.)” value in assay [4] turned out to be 38.6 fold. For the same molecule, the “Fold change in EC50” value in assay [5] is 0.4 fold. The koff came out at 0.00166 s⁻¹ in [6] and 0.00281 s⁻¹ in assay [7]. The Kd in assay [8] came out at 34 nM; in assay [11] it was 43.3 nM; in assay [12] it was 73.1 nM; in assay [15], 34 nM; in assay [16], 34 nM. Further, the figures for the kon in [11] and in assay [12] were 38300 M⁻¹ s⁻¹ and 38500 M⁻¹ s⁻¹, respectively. For the same molecule, the “increase in their apical concentration relative to control VHH (MDCK-hpIgR monolayers)” value in [13] was > 10 fold. Also, in [14], the “For. Trans. (Fold Incr.)” value worked out at 29.5 fold. Besides, in [14], the “Rev. Trans (Fold Incr.)” value turned out to be 11.7 fold.

B2: VHH1 (Fc fusion)
VHH-linker-mono-Fc chain: QVQLVESGGGLVQAGGSLKLACAAPGLTFSSYRMGWFRQAPGQEREFVAAIDWNGRGTYYRYYADSVKGRSTISRDNAKNTMYLQMNSLKPEDTAVYYCAAGSIDLNWYGGMDYWGQGTQVTVSSEPKTPKPQPQPQLQPQPNPTTESKSPKSPAPELLGGPSVFLFPPKPKDTLMISRTPEVTCVVVDVSHEDPEVKFNWYVDGVEVHNAKTKPREEQYNSTYRVVSVLTVLHQDWLNGKEYKCKVSNKALPAPIEKTISKAKGQPREPQVYTKPPSREEMTKNQVSLSCLVKGFYPSDIAVEWESNGQPENNYKTTVPVLDSDGSFRLASYLTVDKSRWQQGNVFSCSVMHEALHNHYTQKSLSLSPGK
notes: Control VHH; also called mpIgR_011; VHH1-linker-mono-Fc protein
With B2, the binding result in assay [20], in assay [21], in assay [18], in assay [22] and in [23] was “no binding (tested: 100 ug/ml (single concentration))” each time.

(Values after patent US20220324970A1 (Janssen / Centocor, published 2022).)
